Measurements as given in patent US20250281410A1, “HIGH-THROUGHPUT PREPARATION OF MICROPARTICLES WITH PULSATILE RELEASE” (William Marsh Rice University, priority 2021, published 2025).

Columns and labels:
[1] = tested on: Avastin; assay: Release of active Avastin from microparticles with excipients, activity by ELISA; conditions: excipients added during fabrication
Method: FIGS. 27A-27F show the release of Avastin from microparticles. FIG. 27A is a heat map depicting the sum of the percentage of Avastin inside the microparticles and Avastin released from the microparticles. Data is normalized to amount of Avastin filled into microparticles. […] Avastin activity was measured using an ELISA. The excipients that were studied were bovine serum albumin (BSA) and sorbitol: monosodium glutamate (MSG): magnesium chloride (MgCl2). FIGS. 27B-27I show plots of the release kinetics of the microparticle formulations of FIG. 27A. The release kinetics depicted in FIG. 27B are for a microparticle with 3 μg BSA as an excipient. The release kinetics depicted in FIG. 27C are for a microparticle with 2 μg BSA as an excipient. […]
Due to concern about the thermal stress potential involved when heating up biotherapeutics which may be desirable as a payload of the microparticles described herein, the temperature of the microparticles was measured during the sealing process to determine the peak temperature and duration of exposure to elevated temperature to quantify the thermal stress that the protein might experience (FIG. 25). […] To determine if these temperatures would damage encapsulated biotherapeutics, the stability of horseradish peroxidase (HRP), was assessed after every step in the formulation process (dispensing, drying, and sealing). […]

[2] = cited from earlier work

| Compound | Avastin remaining after release [1] | solubility in water [2] |
| --- | --- | --- |
| Avastin: a fragile biotherapeutic used to treat certain cancers | significant amounts | – |
| CC(C)Cn1cnc2c(N)nc3ccccc3c21 [imiquimod] | – | approximately 2 μg/mL |
